Results as given in patent US20230057904A1 (Chugai, published 2023).

T1: human CLDN6 (Claudin-6) (human, UniProt P56747 1-220)
T1 construct: also called hCLDN6; human Claudin 6
T1 chain: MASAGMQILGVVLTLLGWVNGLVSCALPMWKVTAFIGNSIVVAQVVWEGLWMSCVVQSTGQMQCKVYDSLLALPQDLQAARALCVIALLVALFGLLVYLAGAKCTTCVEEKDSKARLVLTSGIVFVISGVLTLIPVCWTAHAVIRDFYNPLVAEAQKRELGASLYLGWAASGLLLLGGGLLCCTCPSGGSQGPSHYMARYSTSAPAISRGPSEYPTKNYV

T2: mouse CLDN3 (mouse, UniProt Q9Z0G9 1-219)
T2 construct: also called mCLDN3; mCLDN3/FS293
T2 sequence: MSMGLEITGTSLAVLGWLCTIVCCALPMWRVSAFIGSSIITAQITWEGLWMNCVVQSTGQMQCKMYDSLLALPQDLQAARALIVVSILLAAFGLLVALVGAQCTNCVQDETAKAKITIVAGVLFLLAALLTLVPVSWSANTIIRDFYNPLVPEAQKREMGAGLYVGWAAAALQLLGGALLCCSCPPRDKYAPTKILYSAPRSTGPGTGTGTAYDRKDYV

T3: human CLDN9 (human, UniProt O95484 1-217)
T3 construct: also called hCLDN9; hCLDN9/BaF
T3 sequence: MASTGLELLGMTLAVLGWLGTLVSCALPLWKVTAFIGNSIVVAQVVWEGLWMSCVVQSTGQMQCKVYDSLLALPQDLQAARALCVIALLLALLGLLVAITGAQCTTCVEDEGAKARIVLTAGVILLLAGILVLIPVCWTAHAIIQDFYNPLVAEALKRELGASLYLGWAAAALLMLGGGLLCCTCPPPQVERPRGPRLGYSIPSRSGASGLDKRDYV

T4: mouse CLDN4 (mouse, UniProt O35054 1-210)
T4 construct: also called mCLDN4; mCLDN4/FS293
T4 sequence: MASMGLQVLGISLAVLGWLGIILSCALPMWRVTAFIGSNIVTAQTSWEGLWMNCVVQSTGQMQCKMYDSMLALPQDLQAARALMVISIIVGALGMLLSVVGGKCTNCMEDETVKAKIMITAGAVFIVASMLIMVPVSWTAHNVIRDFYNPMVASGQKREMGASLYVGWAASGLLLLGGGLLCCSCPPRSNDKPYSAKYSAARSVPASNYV

T5: mouse CLDN9 (mouse, UniProt Q9Z0S7 1-217)
T5 construct: also called mCLDN9; mCLDN9/FS293
T5 sequence: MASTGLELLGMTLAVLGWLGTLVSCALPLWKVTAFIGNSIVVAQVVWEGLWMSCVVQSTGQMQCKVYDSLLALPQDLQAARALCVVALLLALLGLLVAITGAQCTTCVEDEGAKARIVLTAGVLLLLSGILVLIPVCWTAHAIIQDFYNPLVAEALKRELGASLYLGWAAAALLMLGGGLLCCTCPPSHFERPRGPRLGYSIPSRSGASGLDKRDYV

T6: mouse CLDN6 (mouse, UniProt Q9Z262 1-219)
T6 construct: also called mCLDN6; mCLDN6/FS293
T6 chain: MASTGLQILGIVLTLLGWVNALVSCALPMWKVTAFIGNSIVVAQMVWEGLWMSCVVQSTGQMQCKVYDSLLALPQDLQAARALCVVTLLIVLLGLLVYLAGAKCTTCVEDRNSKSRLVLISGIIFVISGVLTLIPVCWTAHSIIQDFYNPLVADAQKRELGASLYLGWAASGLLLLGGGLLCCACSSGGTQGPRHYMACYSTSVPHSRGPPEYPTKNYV

T7: human CLDN3 (human, UniProt O15551 1-220)
T7 construct: also called hCLDN3; hCLDN3/BaF
T7 sequence: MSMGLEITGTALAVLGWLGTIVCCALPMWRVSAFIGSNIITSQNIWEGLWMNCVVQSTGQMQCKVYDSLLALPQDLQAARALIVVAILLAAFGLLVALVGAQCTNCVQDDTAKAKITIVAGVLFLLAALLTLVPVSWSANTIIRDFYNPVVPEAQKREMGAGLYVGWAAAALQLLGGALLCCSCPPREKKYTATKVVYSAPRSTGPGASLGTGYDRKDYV

T8: human CLDN4 (human, UniProt O14493 1-209)
T8 construct: also called hCLDN4; hCLDN4/BaF
T8 sequence: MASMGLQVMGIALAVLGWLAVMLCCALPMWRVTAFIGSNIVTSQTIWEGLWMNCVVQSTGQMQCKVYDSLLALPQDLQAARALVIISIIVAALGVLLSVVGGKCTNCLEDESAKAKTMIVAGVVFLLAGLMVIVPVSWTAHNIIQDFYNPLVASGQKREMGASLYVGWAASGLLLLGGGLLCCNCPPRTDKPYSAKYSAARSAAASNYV

B1: KLH/TR01 (bispecific antibody, V domains shown)
VH 1: QVQLQQSGPQLVRPGASVKISCKASGYSFTSYWMHWVNQRPGQGLEWIGMIDPSYSETRLNQKFKDKATLTVDKSSSTAYMQLSSPTSEDSAVYYCALYGNYFDYWGQGTTLTVSS
VL 1: DIQMTQSSSSFSVSLGDRVTITCKASEDIYNRLAWYQQKPGNAPRLLISGATSLETGVPSRFSGSGSGKDYTLSITSLQTEDVATYYCQQYWSTPYTFGGGTKLEVK
VH 2: QVQLVESGGGVVQPGGSLRLSCAASGFTFSNAWMHWVRQAPGKGLEWVAQIKDKSQNYATYVAESVKGRFTISRADSKNSIYLQMNSLKTEDTAVYYCRYVHYAAGYGVDIWGQGTTVTVSS
VL 2: DIVMTQSPLSLPVTPGEPASISCRSSQPLVHSNRNTYLHWYQQKPGQAPRLLIYKVSNRFSGVPDRFSGSGSGTDFTLKISRVEAEDVGVYYCGQGTQVPYTFGQGTKLEIK
notes: made by Fab arm exchange; also called bispecific antibody of anti-keyhole limpet hemocyanin (KLH) antibody paired with the human CD3 antibody TR01; negative control
B2: CS2961 (bispecific antibody, human IgG1, kappa, L234A L235A, N297A)
heavy 1: QVQLVESGGGVVQPGGSLRLSCAASGFTFSSYTMSWVREAPGQGLEWMGTISSGGGRTYYPDSVKGRFTISRDNSKNTLYLQMNSLRDEDTAVYYCARGDYRYDGFAYWGEGTLVTVSSASTKGPSVFPLAPSSKSTSGGTAALGCLVEDYFPEPVTVSWNSGALTSGVHTFPAVLESSGLYSLSSVVTVPSSSLGTQTYICNVNHKPSNTKVDERVEPKSCDKTHTCPPCPAPEAAGGPKVFLFPPKPKDTLMISRTPEVTCVVVDVSHEDPEVKFNWYVDGVEVHNAKTKPREEQYASTYRVVSVLTVLHQDWLNGKEYKCKVSNKGLPSSIEKTISKAKGQPREPQVYTLPPSREEMTKNQVSLTCLVKGFYPSDIAVEWESNGQPENNYKTTPPVLDSDGSFFLYSKLTVDKSRWQQGNVFSCSVMHEALHNHYTQESLSLSP
light 1: DIQMTQSPSSLSASVGDRVTITCRASYNIDSYLAWYQKKPGKAPELLIYYSTLLVDGVPDRFSGSRSGTDFTLTISSLQPEDFATYYCQHYYSIPYTFGQGTKVEIERTVAAPSVFIFPPSDKQLKSGTAKVVCLLNNFYPREAKVQWKVDNALQSGNSKESVTEQDSKDSTYSLSSTLTLSKADYEKHKVYACEVTHQGLSSPVTKSFNRGEC
heavy 2: QVQLVESGGGVVQPGGSLRLSCAASGFTFSNAWMHWVRKAPGKGLEWVAQIKDKSQNYATYVAESVKGRFTISRADSKNSIYLQMNSLKTEDTAVYYCRYVHYAAGYGVDIWGQGTTVTVSSASTKGPSVFPLAPSSKSTSGGTAALGCLVKDYFPEPVTVSWNSGALTSGVHTFPAVLKSSGLYSLSSVVTVPSSSLGTQTYICNVNHKPSNTKVDKRVEPKSCDKTHTCPPCPAPEAAGGPKVFLFPPKPKDTLMISRTPEVTCVVVDVSHEDPEVKFNWYVDGVEVHNAKTKPREEQYASTYRVVSVLTVLHQDWLNGKEYKCKVSNKGLPSSIEKTISKAKGQPREPQVYTLPPSRKEMTKNQVSLTCLVKGFYPSDIAVEWESNGQPENNYKTTPPVLDSDGSFFLYSKLTVDKSRWQQGNVFSCSVMHEALHNHYTQKSLSLSP
light 2: DIVMTQSPLSLPVTPGEPASISCRSSQPLVHSNRNTYLHWYQEKPGQAPRLLIYKVSNRFSGVPDRFSGSGSGTDFTLKISRVEAEDVGVYYCGQGTQVPYTFGQGTKLEIKRTVAAPSVFIFPPSDEQLKSGTAEVVCLLNNFYPREAKVQWKVDNALQSGNSEESVTEQDSKDSTYSLSSTLELSKADYEKHKVYACEVTHQGLSSPVTKSFNRGEC
notes: also called 65HQ39E-SG1212/54L0532Q38K-SK1021//TR01 arm with SG1213/SK1017

Columns and labels:
human CLDN6 (Claudin-6) = biological target: T1, human CLDN6 (Claudin-6); assay: flow cytometry, FreeStyle 293-F transfectants expressing human CLDN6, anti-human IgG Alexa Fluor 647; MFI
mouse CLDN3 = biological target: T2, mouse CLDN3; assay: flow cytometry, FreeStyle 293-F transfectants expressing mouse CLDN3, anti-human IgG Alexa Fluor 647; MFI
Procedure: (§1) Antibodies were mixed with FreeStyle™ 293-F cells transiently expressed human and mouse CLDN3, 4, 6, and 9 at final concentration of 10 micro g/mL. After 1 hour of incubation, cells were washed by 0.1% BSA containing D-PBS(−), and incubated in 5 micro g/mL of either Goat anti-Human IgG (H+L) Cross-Adsorbed Secondary Antibody, Alexa Fluor 647 (Invitrogen, A21445) or Goat anti-Mouse IgG (H+L) Highly Cross-Adsorbed Secondary Antibody, Alexa Fluor 647 (Invitrogen, A21236), for 1 hour. Cells were then washed with 0.1% BSA containing D-PBS(−), resuspended in 5 micro L of 0.1% BSA containing D-PBS(−), and analyzed by flow cytometer (iQue Screener, intellicyte).

human CLDN9 [1] = biological target: T3, human CLDN9; assay: flow cytometry, FreeStyle 293-F transfectants expressing human CLDN9, anti-human IgG Alexa Fluor 647; MFI
Procedure: as §1

mouse CLDN4 = biological target: T4, mouse CLDN4; assay: flow cytometry, FreeStyle 293-F transfectants expressing mouse CLDN4, anti-human IgG Alexa Fluor 647; MFI
Procedure: as §1

mouse CLDN9 = biological target: T5, mouse CLDN9; assay: flow cytometry, FreeStyle 293-F transfectants expressing mouse CLDN9, anti-human IgG Alexa Fluor 647; MFI
Procedure: as §1

mouse CLDN6 = biological target: T6, mouse CLDN6; assay: flow cytometry, FreeStyle 293-F transfectants expressing mouse CLDN6, anti-human IgG Alexa Fluor 647; MFI
Procedure: as §1

human CLDN3 [2] = biological target: T7, human CLDN3; assay: flow cytometry on hCLDN3/BaF (Ba/F3 transfectant), Alexa Fluor 488 anti-human IgG
Procedure: (§2) Amino acid sequence are highly conserved among CLDN3, CLDN4, CLDN6 and CLDN9. Thus we examined CLDN6 binding specificity by FACS analysis. hCLDN6/BaF, hCLDN3/BaF, hCLDN4/BaF, and hCLDN9/BaF were incubated with CS2201, CS2961, AH05/TR01 and 6PHU3/TR01 at 15 micro g/ml. KLH/TR01 generated in Example 2-3 was used as a staining control. Binding of each antibody was detected with Alexa Fluor 488-conjugated anti human IgG (Invitrogen). Dead cells were separated by eFlour 780 (Invitrogen) staining.

human CLDN4 [3] = biological target: T8, human CLDN4; assay: flow cytometry on hCLDN4/BaF (Ba/F3 transfectant), Alexa Fluor 488 anti-human IgG
Procedure: as §2

human CLDN3 [4] = biological target: T7, human CLDN3; assay: flow cytometry on hCLDN3/BaF (Ba/F3 transfectant), Alexa Fluor 488 anti-human IgG; histogram against KLH/TR01
Procedure: as §2

human CLDN9 [5] = biological target: T3, human CLDN9; assay: flow cytometry on hCLDN9/BaF (Ba/F3 transfectant), Alexa Fluor 488 anti-human IgG; histogram against KLH/TR01
human CLDN4 [6] = biological target: T8, human CLDN4; assay: flow cytometry on hCLDN4/BaF (Ba/F3 transfectant), Alexa Fluor 488 anti-human IgG; histogram against KLH/TR01

Row | Binder | binding result (human CLDN6 (Claudin-6)) | binding result (mouse CLDN3) | binding result (human CLDN9 [1]) | binding result (mouse CLDN4) | binding result (mouse CLDN9) | binding result (mouse CLDN6) | binding result (human CLDN3 [2]) | binding result (human CLDN4 [3]) | binding result (human CLDN3 [4]) | binding result (human CLDN9 [5]) | binding result (human CLDN4 [6])
1 | B1 | no binding (tested: 10 micro g/mL) | no binding (tested: 10 micro g/mL) | no binding (tested: 10 micro g/mL) | no binding (tested: 10 micro g/mL) | no binding (tested: 10 micro g/mL) | no binding (tested: 10 micro g/mL) | no binding (tested: 15 micro g/ml) | no binding (tested: 15 micro g/ml) |  |  | 
2 | B2 |  |  |  |  |  |  |  |  | no binding (tested: 15 micro g/ml) | no binding (tested: 15 micro g/ml) | no binding (tested: 15 micro g/ml)
